In patent US20240199746A1 (published 2024):

T1: Ax1 protein, extracellular domain (human, UniProt P30530 26-451)
T1 construct: extracellular domain; also called Axl; Ark
T1 sequence (looked up): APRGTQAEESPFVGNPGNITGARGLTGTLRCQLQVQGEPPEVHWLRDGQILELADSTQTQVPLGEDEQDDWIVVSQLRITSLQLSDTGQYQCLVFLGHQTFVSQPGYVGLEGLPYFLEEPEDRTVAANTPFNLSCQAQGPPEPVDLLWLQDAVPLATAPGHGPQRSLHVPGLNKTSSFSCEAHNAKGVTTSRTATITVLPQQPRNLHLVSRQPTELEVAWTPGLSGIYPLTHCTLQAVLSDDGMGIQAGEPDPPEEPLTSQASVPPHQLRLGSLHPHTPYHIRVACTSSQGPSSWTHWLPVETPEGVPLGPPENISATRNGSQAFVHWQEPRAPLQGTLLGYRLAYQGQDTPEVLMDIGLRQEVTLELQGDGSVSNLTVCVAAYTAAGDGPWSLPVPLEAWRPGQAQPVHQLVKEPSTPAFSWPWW


Tests used:
[1] = molecular target: T1, Ax1 protein, extracellular domain; assay: ELISA, mutant diluted 1:9
Description: (§1) The DNA encoding the wild-type antibody was evolved to generate a mutant antibody library using Comprehensive Positional Evolution (CPE), which each position in the template antibody is randomized one at a time. Each mutant antibody in the library has only one single point mutation. The mutant antibodies in the library were generated by simultaneously screening for selective binding affinity to Ax1 at pH 6.0 over pH 7.4 by ELISA. Two mutant antibody dilutions were used: 1:3 and 1:9 dilutions.

[2] = molecular target: T1, Ax1 protein, extracellular domain; assay: ELISA, mutant diluted 1:3
Description: as §1

Binder | Affinity ELISA CPE mutant ratio (1:9, pH 6.0/7.4) [1] | Affinity ELISA CPE mutant ratio (1:3, pH 6.0/7.4) [2]
HC-W110H (antibody, V domains shown) VH: EVQLVQSGAEVKKPGATVKISCKVSGYSFTGHTMNWIRQPPGKGLEWIGLIKPSNGGTSYNQKFKGRVTISADKSISTAYLQWSSLKASDTAMYYCAHGHYESYFAMDYHGQGTLVTVSS VL: DIQMTQSPSSLSASVGDRVTITCKASQDVSSAVAWYQQKPGQAPRLLIYWASTRHTGVPSRFSGSGSGTEFTLTISSLQPDDFATYYCQEHFSTPLTFGQGTKVEIK | 0.932 | 7.99
HC-W110N (antibody, V domains shown) VH: EVQLVQSGAEVKKPGATVKISCKVSGYSFTGHTMNWIRQPPGKGLEWIGLIKPSNGGTSYNQKFKGRVTISADKSISTAYLQWSSLKASDTAMYYCAHGHYESYFAMDYNGQGTLVTVSS VL: DIQMTQSPSSLSASVGDRVTITCKASQDVSSAVAWYQQKPGQAPRLLIYWASTRHTGVPSRFSGSGSGTEFTLTISSLQPDDFATYYCQEHFSTPLTFGQGTKVEIK | 0.8 | 4.3
HC-W110A (antibody, V domains shown) VH: EVQLVQSGAEVKKPGATVKISCKVSGYSFTGHTMNWIRQPPGKGLEWIGLIKPSNGGTSYNQKFKGRVTISADKSISTAYLQWSSLKASDTAMYYCAHGHYESYFAMDYAGQGTLVTVSS VL: DIQMTQSPSSLSASVGDRVTITCKASQDVSSAVAWYQQKPGQAPRLLIYWASTRHTGVPSRFSGSGSGTEFTLTISSLQPDDFATYYCQEHFSTPLTFGQGTKVEIK | 1.2 | 7.31
HC-W110L (antibody, V domains shown) VH: EVQLVQSGAEVKKPGATVKISCKVSGYSFTGHTMNWIRQPPGKGLEWIGLIKPSNGGTSYNQKFKGRVTISADKSISTAYLQWSSLKASDTAMYYCAHGHYESYFAMDYLGQGTLVTVSS VL: DIQMTQSPSSLSASVGDRVTITCKASQDVSSAVAWYQQKPGQAPRLLIYWASTRHTGVPSRFSGSGSGTEFTLTISSLQPDDFATYYCQEHFSTPLTFGQGTKVEIK | 0.924 | 8.22

Results, then the binder that gave them:

Affinity ELISA CPE mutant ratio (1:9, pH 6.0/7.4) [1] | Affinity ELISA CPE mutant ratio (1:3, pH 6.0/7.4) [2] | Binder
2.15 | 6.49 | HC-W110P (antibody, V domains shown) VH: EVQLVQSGAEVKKPGATVKISCKVSGYSFTGHTMNWIRQPPGKGLEWIGLIKPSNGGTSYNQKFKGRVTISADKSISTAYLQWSSLKASDTAMYYCAHGHYESYFAMDYPGQGTLVTVSS VL: DIQMTQSPSSLSASVGDRVTITCKASQDVSSAVAWYQQKPGQAPRLLIYWASTRHTGVPSRFSGSGSGTEFTLTISSLQPDDFATYYCQEHFSTPLTFGQGTKVEIK
1.06 | 5.99 | HC-W110R (antibody, V domains shown) VH: EVQLVQSGAEVKKPGATVKISCKVSGYSFTGHTMNWIRQPPGKGLEWIGLIKPSNGGTSYNQKFKGRVTISADKSISTAYLQWSSLKASDTAMYYCAHGHYESYFAMDYRGQGTLVTVSS VL: DIQMTQSPSSLSASVGDRVTITCKASQDVSSAVAWYQQKPGQAPRLLIYWASTRHTGVPSRFSGSGSGTEFTLTISSLQPDDFATYYCQEHFSTPLTFGQGTKVEIK
1.37 | 7.47 | HC-W110T (antibody, V domains shown) VH: EVQLVQSGAEVKKPGATVKISCKVSGYSFTGHTMNWIRQPPGKGLEWIGLIKPSNGGTSYNQKFKGRVTISADKSISTAYLQWSSLKASDTAMYYCAHGHYESYFAMDYTGQGTLVTVSS VL: DIQMTQSPSSLSASVGDRVTITCKASQDVSSAVAWYQQKPGQAPRLLIYWASTRHTGVPSRFSGSGSGTEFTLTISSLQPDDFATYYCQEHFSTPLTFGQGTKVEIK
